# Source: patent publication US11813311B2, “Treatment and prevention of metabolic diseases” (Singapore Health Services PTE LTD., priority 2019, dated 2023)
# Like-named read-outs stand apart in the source and are kept apart here.
# Key:
# TGFβ1-stimulated HSCs = test: Inhibition of MMP2 secretion by TGFβ1-stimulated HSCs (IC50); type: cell-based, human
# Description: HSCs (5300, ScienCell) were cultured in stellate cells complete media (5301, ScienCell) on poly-L-lysine-coated plates (2 μg/cm2, 0403, ScienCell).
# HSCs were stimulated with TGFβ1(5 ng m1^−1, 24 h) in the presence of IgG (4 μg ml^−1) and varying concentrations of X209 (4 μg ml^−1 to 61 pg ml^−1; 4-fold dilutions). Supernatants were collected and assayed for the amount of secreted MMP2. Dose-response curves were generated by plotting the logarithm of X209 tested concentration (pM) versus corresponding percent inhibition values using least squares (ordinary) fit. The IC50 value was calculated using log(inhibitor) versus normalized response-variable slope equation.
# The levels of IL-11 and MMP-2 in equal volumes of cell culture media were quantified using Human IL-11 Quantikine ELISA kit (D1100, R&D Systems) and Total MMP-2 Quantikine ELISA kit (MMP200, R&D Systems), respectively. Total secreted collagen in the cell culture supernatant was quantified using Sirius red collagen detection kit (9062, Chondrex). Total hydroxyproline content in the livers was measured using Quickzyme Total Collagen assay kit (Quickzyme Biosciences). Mouse serum levels of alanine aminotransferease (ALT), cholesterol, and triglycerides were measured using Alanine Transaminase Activity Assay Kit (ab105134, abcam), Cholesterol Assay Kit (ab65390, abcam), and Triglyceride Assay Kit (ab65336, abcam), respectively. […]
# HFMCD-fed mice = test: Early-stage HFMCD NASH, antibody from week 1; type: in vivo, mouse; conditions: for development of fibrosis / lipid droplets in livers: HFMCD, 10 mg/kg biweekly from week 1; for hepatic lipid metabolism (lipogenesis and β-oxidation gene expression): RNA-seq, compared to IgG
# Description: FIGS. 22A to 22K. Neutralisation of Il-11 signalling reverses liver damage in early stage NASH. (A) Relative liver mRNA expression of fibrosis and inflammation markers from mice fed with NC or HFMCD diets for the indicated time points. (B) Schematic of the anti-IL-11 therapy experiment early on in the HFMCD diet NASH model. Antibody treatments were started 1 week after the start of NASH diet when X209, X203, or IgG (10 mg/kg, biweekly) were administered intraperitoneally for 5 weeks. (C) Representative gross liver images and (D) Masson's Trichrome stained images of livers (scale bars, 100 μm) after 5 weeks of IgG or X209 treatments. (E) Hepatic triglyceride levels (n≥5/group), (F) liver hydroxyproline content of X209- and IgG-treated mice (n≥5/group), (G) serum ALT levels (n≥5/group). (H) Immunofluorescence images of IL6R and IL11RA expression in hepatocytes (scale bars, 100 μm). Dose-dependent effect of (I) IL-11 on ALT in hepatocyte supernatant and (J) stress fibers formation (rhodamine-phalloidin staining) in hepatocyte (scale bars, 200 μm). (K) IL-11 protein is secreted from primary human hepatocytes stimulated with TGFβ1 (5 ng/ml); 24 h. (E) Data are shown as box-and-whisker with median (middle line), 25th-75th percentiles (box) and min-max percentiles (whiskers); (F-G,I,K) data are shown as mean±s.d. (E) Tukey-corrected Student's t-test; (F,G) two-way ANOVA; (I,K) two-tailed Dunnett's test. FC: fold change; NC: normal chow; HFMCD: high fat methionine- and choline-deficient.
# High fat methionine and choline-deficient (HFMCD) diet fed wild-type mice Five week old male C57BL/6N mice were fed with Methionine and Choline deficient diet supplemented with 60 kcal % fat (A060713011316, Research Diets); control mice were fed with normal chow (NC, Specialty Feeds). Durations of diet and antibody therapies are described.
# Immune cells were isolated from liver as described previously 20. Liver tissues were minced and digested with 100 μg/ml Collagenase IV and 20 U/ml DNase I, at 37° C. for 1 h. Following digestion, cells were passed through strainer to obtain single cell suspension and subjected to percoll gradient centrifugation for isolation of immune cells. CyTOF staining was performed as previously described 21. Cells were thawed and stained with cisplatin (Fluidigm) to identify live cells, followed by staining with metal-conjugated CD45 antibody, for barcoding purpose. After barcoding, cells were stained with metal-conjugated cell surface antibody (Ly6C). Cells were then fixed with 1.6% PFA, permeabilized with 100% methanol, and subjected to intracellular antibody staining (TGFβ1). Cells were labeled with DNA intercalator before acquisition on Helios mass cytometer (Fluidigm). For analysis, first live single cells were identified, followed by debarcoding to identify individual samples. Manual gating was performed using Flowjo software (Flowjo).
Molecule,IC50 (TGFβ1-stimulated HSCs; read-out: IC50 for HSC activation),development of fibrosis (HFMCD-fed mice),lipid droplets in livers (HFMCD-fed mice),hepatic lipid metabolism (lipogenesis and β-oxidation gene expression) (HFMCD-fed mice),"IC50 (TGFβ1-stimulated HSCs; TGFβ1 5 ng/ml, 24 h, 4 μg/ml to 61 pg/ml, 4-fold dilutions, read-out: IC50, blocking MMP2 secretion from HSCs)",circulating TGFβ1 levels (HFMCD-fed mice; HFMCD diet),"Ly6C+veTGFβ1+ve cells (HFMCD-fed mice; during steatohepatitis, CyTOF)","immune cells in liver (HFMCD-fed mice; during steatohepatitis, CyTOF)"
"X203: mouse anti-mouse IL-11 IgG (IgG1κ), neutralising; VH SEQ ID NO:22, VL SEQ ID NO:23 (antibody, V domains shown, Enx203 VH; Enx203 VL) VH: EVQLQQSGPELVKPGASVKIPCKASGYTFTDYNMDWVKQSHGKSLEWIGDINPHNGGPIYNQKFTGKATLTVDKSSSTAYMELRSLTSEDTAVYYCARGELGHWYFDVWGTGTTVTVSS VL: DIVLTQSPASLAVSLGQRATISCRASKSVSTSGYSYIHWYQQKPGQPPKLLIYLASNLDSGVPARFSGSGSGTDFTLNIHPVEEEDAATYYCQHSRDLPPTFGGGTKLEIK",0.0401 nM,nor did these mice develop fibrosis,not seen,improved hepatic lipid metabolism,–,–,–,–
"X209: mouse anti-mouse IL-11Rα IgG (IgG1κ), neutralising; VH SEQ ID NO:24, VL SEQ ID NO:25 (antibody, V domains shown, Enx209 VH; Enx209 VL) VH: QVQLQQPGAELVRPGSSVKLSCKASGYTFTNYWMHWLKQRPVQGLEWIGNIGPSDSKTHYNQKFKDKATLTVDKSSSTAYMQLNSLTSEDSAVYYCARGDYVLFTYWGQGTLVTVSA VL: DIVLTQSPATLSLSPGERATLSCRASQSISNNLHWYQQKSHEAPRLLIKYASQSISGIPARFSGSGSGTDFTLSFSSLETEDFAVYFCQQSYSWPLTFGQGTKLEIK",–,nor did these mice develop fibrosis,not seen,"more so than X203, improved hepatic lipid metabolism",0.0058 nM,reduced,specific reduction,fewer immune cells
